Target: P2C-1F11 monoclonal antibody (human)
Experiment: SPR

SARS-CoV-2 receptor-binding domain (RBD), residues Arg319 to Lys529 (from UniProt P0DTC2 319-529) (domain or fragment)
Kd: 1.72 nM

— PMC7801515
